One molecule from patent US20080214457A1 (METROHEALTH SYSTEM, published 2008) can be followed below.

Where no end group is shown, it is not given here.

This assay concerns the target T1, H558-YFPf (human, UniProt Q14524 538-577).
T1 construct: Expressed in HEK293 cells; also called hNav1.5 protein fragment centered on H558 fused to YFP; not shown: enhanced yellow fluorescent protein from the pEYFP-N3 vector
The assay can be described thus: three-channel FRET normalized to CFP, fragments coexpressed in HEK293 cells. From the text: Three-channel FRET ratios were normalized to CFP and reported as FRETc as previously described by Vanderklish and colleagues, Proc Natl Acad Sci USA. 2000; 97:2253-2258. […] In all experiments, FRET was absent from the cell membrane, which is consistent with the inability of these protein fragments to traffic to the membrane. […] More importantly, hNav1.5 interaction occurs preferentially when 1 protein expresses R558 and the other expresses H558.

B1: R558-CFPf (other, human, UniProt Q14524 538-577, looked up)
chain: GSEADFADDENSTAGESESHRTSLLVPWPLRRTSAQGQPS
modifications: also: fused to CFP, linker and end not given here
notes: Expressed in HEK293 cells; not shown: enhanced cyan fluorescent protein from the pECFP-N3 vector
Consider B1, for which the “fold increase in FRETc compared with the homotypic FRETc values” is 3 fold.
